Assay [1] addresses T1, human epidermal growth factor receptor (EGFR) on cells (human, UniProt P00533 25-1210).
T1 construct: whole, on cells; SPI is said to associate with the pTyr motifs of the receptor's cytoplasmic tail inside cells; also called hEGFR; EGF receptor
Put plainly: Fluorescence and confocal microscopy, fluorescently-labeled SPI and anti-EGFR immunostaining in MDA-MB-231 and NIH3T3/hEGFR cells. From the text: Fluorescence imaging and immunofluorescence with laser-scanning confocal microscopy.

For assay [2], the target named is T2, PpYLKTK (Stat3-derived pTyr705 peptide).
T2 construct: SPR analyte; also called pY705Stat3; Stat3 pY705 peptide
T2 peptide: P[pY]LKTK
Put plainly: SPR (SensiQ), His-tagged protein immobilised on HisCap chip, pTyr peptide as analyte.

The target of assay [3] is T3, GpYIKTE (Stat1 pY701 peptide).
T3 construct: SPR analyte; also called pY701Stat1; Stat1 phosphopeptide
T3 peptide: G[pY]IKTE
Described as above.

Assay [4] deals with T4, GpYVKPQ (pTyr peptide of Stat5).
T4 construct: SPR analyte; also called pY694Stat5; pY695Stat5
T4 peptide: G[pY]VKPQ
The assay is described as above.

In assay [5] the target is T5, PEpYINQS (pY1068 peptide of EGFR).
T5 construct: SPR analyte; also called pY1068EGFR
T5 peptide: PE[pY]INQS
The assay is described as above.

Assay [6] has as its target T4, GpYVKPQ (pTyr peptide of Stat5). The assay can be described thus: SPR (SensiQ); His-tagged full-length Stat3 immobilised on a HisCap sensor chip, GpYVKPQ passed over as analyte; sensorgram shown at 100 µM.

Where no end group is shown, it is not given here. [ ]: non-standard residue; d: D form. pY = N[C@@H](Cc1ccc(OP(=O)(O)O)cc1)C(=O)O

B1: 5-carboxyfluorescein-labeled SPI (peptide)
peptide: FISKERERAILSTKPPGTFLLRFSESSK
modifications: 5-carboxyfluorescein attached to the amino-terminus
notes: Used for cell uptake and colocalisation microscopy; also called fluorescently-labeled SPI
Take B1: the binding result in assay [1] is “binds”.

B2: His-tagged Stat3 (full-length Stat3) (other)
chain: MAQWNQLQQLDTRYLKQLHQLYSDTFPMELRQFLAPWIESQDWAYAASKESHATLVFHNLLGEIDQQYSRFLQESNVLYQHNLRRIKQFLQSRYLEKPMEIARIVARCLWEESRLLQTAATAAQQGGQANHPTAAVVTEKQQMLEQHLQDVRKRVQDLEQKMKVVENLQDDFDFNYKTLKSQGDMQDLNGNNQSVTRQKMQQLEQMLTALDQMRRSIVSELAGLLSAMEYVQKTLTDEELADWKRRQQIACIGGPPNICLDRLENWITSLAESQLQTRQQIKKLEELQQKVSYKGDPIVQHRPMLEERIVELFRNLMKSAFVVERQPCMPMHPDRPLVIKTGVQFTTKVRLLVKFPELNYQLKIKVCIDKDSGDVAALRGSRKFNILGTNTKVMNMEESNNGSLSAEFKHLTLREQRCGNGGRANCDASLIVTEELHLITFETEVYHQGLKIDLETHSLPVVVISNICQMPNAWASILWYNMLTNNPKNVNFFTKPPIGTWDQVAEVLSWQFSSTTKRGLSIEQLTTLAEKLLGPGVNYSGCQITWAKFCKENMAGKGFSFWVWLDNIIDLVKKYILALWNEGYIMGFISKERERAILSTKPPGTFLLRFSESSKEGGVTFTWVEKDISGKTQIQSVEPYTKQQLNNMSFAEIIMGYKIMDATNILVSPLVYLYPDIPKEEAFGKYCRPESQEHPEADPGSAAPYLKTKFICVTPTTCSNTIDLPMSPRTLDSLMQFGNNGEGAEPSAGGQFESLTFDMDLTSECATSPM
As to B2, the Kd in assay [2] came out at 0.9 µM; in assay [3], 4.4 µM; in assay [4] it was 1200 µM; in assay [5] it was 0.6 µM; in assay [6], 1140 µM.

The Kd is the concentration at which binding is half-saturated. A higher Kd goes with a looser complex.

Values taken from patent publication US20130177979A1 (UNIVERSITY OF CENTRAL FLORIDA RESEARCH FOUNDATION, published 2013).
